Consider one substance from patent US20100086540A1.

Experiment [1] has as its target soluble extracellular domain of EGFR (sEGFR) (UniProt P00533). Briefly: SPR competition: Fab11F8 added to 600 nM sEGFR, passed over immobilized EGF.
Experiment [2] deals with isolated domain III of sEGFR (sEGFRd3) (UniProt P00533). Briefly: SPR (BIAcore 3000), sEGFRd3 passed over immobilized Fab11F8, equilibrium analysis. Background: Surface plasmon resonance follows binding to a sensor surface in real time, without labels.
Experiment [3] deals with soluble extracellular domain of EGFR (sEGFR) (UniProt P00533). Briefly: SPR (BIAcore 3000), sEGFR passed over immobilized Fab11F8, equilibrium response, one-site Langmuir fit.

pIC50, pKd: −log10 of the molar value.

Sequence of antibody 11F8 Fab fragment (VH): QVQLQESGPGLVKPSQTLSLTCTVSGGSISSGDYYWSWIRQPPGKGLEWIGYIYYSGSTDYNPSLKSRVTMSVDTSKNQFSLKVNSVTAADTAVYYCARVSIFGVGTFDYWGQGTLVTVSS
Sequence of antibody 11F8 Fab fragment (VL): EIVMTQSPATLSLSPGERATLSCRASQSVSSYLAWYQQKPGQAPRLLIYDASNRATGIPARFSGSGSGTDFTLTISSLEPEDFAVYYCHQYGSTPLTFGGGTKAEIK

antibody 11F8 Fab fragment: the pIC50 (usually the negative decadic logarithm of the IC50, by convention in mol/L) in experiment [1] is 7.00. Moreover, the pKd (commonly the negative decadic logarithm of the Kd, by convention in mol/L) in experiment [2] was 9.00; in experiment [3], 8.48.
